# Data: article PMC7587433
# Columns and labels:
# [1] = molecular target: rFN12-14 (recombinant fibronectin type III repeats 12 to 14); experiment: SPR; Biacore T200, C1 sensor chip; rFN12-14 immobilised (~870 RU); rF-, rFG-repeat or multiple repeats in HBS-EP injected at 40 μl/min; double referencing
# [2] = molecular target: fibronectin (full-length human Fn, Sigma-Aldrich) (human) (UniProt P02751); experiment: SPR; Biacore T200, C1 sensor chip, 25°C, HBS-EP (10 mM HEPES pH 7.4, 150 mM NaCl, 3 mM EDTA, 0.005% Surfactant P20); Fn immobilised by amine coupling (~1,000 RU); rF- and rFG-repeats injected at 40 μl/min
Substance,Kd [1],Kd [2]
"r2FG-repeats (recombinant Embp fragment, aa 6777 to 7028) (domain or fragment)",0.5 µM,–
"rF-repeat (recombinant first F-repeat of Embp, aa 2569 to 2738)",–,4 µM
"rF-repeat (recombinant first F-repeat of Embp, aa 2569 to 2738) (domain or fragment)",29 µM,–
"r4F-repeats (recombinant Embp fragment, aa 2569 to 3248) (domain or fragment)",20 µM,–
"rFG-repeat (recombinant 19th FG-repeat of Embp, aa 6777 to 6902) (domain or fragment)",0.13 µM,0.0016 µM
"r2F-repeats (recombinant Embp fragment, aa 2569 to 2908) (domain or fragment)",10 µM,–
